Test results: patent US10117953B2, “Antibody drug conjugates” (Novartis AG, priority 2013, dated 2018)

Legend:
[1] = target: T1, cKit receptor on normal human CD34+ bone marrow cells (Homo sapiens, UniProt P10721); assay: cKit receptor levels on bone marrow cells by flow cytometry; format: cell-based; conditions: 10 μg/ml
T1 construct: host or cells: normal human CD34+ bone marrow cells (primary)
Protocol: In another internalization experiment, the impact of NEG085 on cKit receptor levels was evaluated on human bone marrow cells. Normal human CD34+ bone marrow cells (All Cells, Cat #ABM022F, Emeryville, Calif.) were thawed and washed with 10 mL of StemPro0-34 SFM medium (Gibco, Life Technologies, Carlsbad, Calif.). Cells were resuspended in 1.25 mL of StemPro-34 SFM medium at 4×10^5 cells/mL and split equally into two tubes. […] 100 μL of cell suspension was collected at each timepoint (0, 15, 30, 60, 120, and 240 min) from each condition, and placed into an ice cold collection tube to cease internalization. Cells were washed with 3 mL of ice-cold FBS stain buffer and resuspended in 100 μL of FBS stain buffer. […] of 104D2-BV421 (mouse anti-human IgG1 k, Biolegend) was added to each tube and incubated on ice for 1 hour. Following another wash with FBS stain buffer, total cKit receptors were measured by flow cytometry by assessing the mean fluorescence intensity of BV421 on a FACS Canto II® (BD Biosciences, San Jose, Calif.).

[2] = tested on: Mo7e cells (SCF-dependent); assay: Mo7e proliferation assay in presence of SCF; format: cell-based, human; conditions: 10 ng/ml SCF, 5 days
Protocol: To evaluate the potential antagonistic properties of the naked antibodies and the ability of the antibody drug conjugates (ADCs) to inhibit the proliferation of a cKIT-expressing cell line, MO7e (DSMZ, Catalog # ACC-104, Braunschweig, Del.) were grown in the presence or absence of cKIT ligand, Stem Cell Factor (SCF), for survival. MO7e cells were grown in either 10 ng/ml human granulocyte-macrophage colony-stimulating factor GM-CSF (R&D Systems Cat#215-GM, Minneapolis, Minn.) or 10 ng/ml human Stem Cell Factor SCF (R&D Systems Cat#255-SC) prior to seeding in 96 well plates (Costar Cat #3904, Corning, Tewksbury, Mass.) at 5000 cells/well in 100 μl dilution medium. A duplicate plate was generated for a day 0 measurement and all plates were incubated in a tissue culture incubator at 37° C. with 5% CO2 overnight. […] Assay plates were shaken gently for 20 min and the resulting luminescence intensity was measured using a Perkin Elmer 1450 Microbeta TriLux® plate reader (Perkin Elmer, Waltham, Mass.). […] Following this incubation period, relative cell viability was determined via the addition of Cell titer Glo reagent as described above. The effect of the ADCs on cell proliferation was calculated using the average of the duplicates as follows: (% Inhibition=(ADC or Ab treated)/(untreated)*100) The % inhibition data was fitted to a 4-parameter logistic equation and IC50 values were determined.

Uke-1 cells = assay: ADCC activity in vitro (Calcein release, NK3.3 effector cells); format: cell-based, human; conditions: effector to target ratio 20 to 1
Protocol: In brief, Uke-1 cells were stained with Calcein acetoxy-methyl ester (Calcein-AM; Sigma-Aldrich catalog #17783-5MG, St. Louis, Mo.), washed twice, pipetted into a 96-well microtiterplate (96 well, U-bottomed, clear plastic; Corning Costar, catalog #650 160, Tewksbury, Mass.) at a concentration of 5000 cells per well and pre-incubated for 10 min with a serial dilution of the above mentioned antibodies and proteins (from 50,000 to 0.003 μg per ml) before adding the effector NK3.3 cells for 1 hour in an effector to target ratio of 20 to 1. In order to calculate the antibody specific lysis of the target cells, a parallel incubation of target cells only without antibody or effector cells served as a baseline and negative control, whereas the positive control or maximal lysis or hundred percent specific lysis was determined by lysis of target cells only with a 1% Triton-X 100 solution. […] Following a co-incubation of target and effector cells, the microtiterplate was centrifuged and an aliquot of the supernatant fluid was transferred to another microtiterplate (96 well, flat-bottomed, black with clear bottom; Corning Costar, catalog #3904, Tewksbury, Mass.) and the concentration of free Calcein in solution was determined with a fluorescence counter (Victor 3® multilabel counter, Perkin Elmer, Waltham, Mass.).

primary human mast cells = assay: Mast cell degranulation (β-hexosaminidase release); format: cell-based; conditions: 0.05-100 nM, 90 min
Protocol: Primary human mast cells were cultured from peripheral human blood according to the methods described by Saito et al., (supra). […] Cells were then centrifuged and the supernatants were transferred into 96-well black-walled plates prior to the addition of the β-hexosaminidase substrate. Following 90 min incubation at 37° C., the reaction was stopped by the addition of tris-base (Sigma, Cat # T1503-500G, pH 12, St. Louis, Mo.) and the fluorescence intensity was recorded on the Envision® plate reader.

T1 sequence (P10721 26-976): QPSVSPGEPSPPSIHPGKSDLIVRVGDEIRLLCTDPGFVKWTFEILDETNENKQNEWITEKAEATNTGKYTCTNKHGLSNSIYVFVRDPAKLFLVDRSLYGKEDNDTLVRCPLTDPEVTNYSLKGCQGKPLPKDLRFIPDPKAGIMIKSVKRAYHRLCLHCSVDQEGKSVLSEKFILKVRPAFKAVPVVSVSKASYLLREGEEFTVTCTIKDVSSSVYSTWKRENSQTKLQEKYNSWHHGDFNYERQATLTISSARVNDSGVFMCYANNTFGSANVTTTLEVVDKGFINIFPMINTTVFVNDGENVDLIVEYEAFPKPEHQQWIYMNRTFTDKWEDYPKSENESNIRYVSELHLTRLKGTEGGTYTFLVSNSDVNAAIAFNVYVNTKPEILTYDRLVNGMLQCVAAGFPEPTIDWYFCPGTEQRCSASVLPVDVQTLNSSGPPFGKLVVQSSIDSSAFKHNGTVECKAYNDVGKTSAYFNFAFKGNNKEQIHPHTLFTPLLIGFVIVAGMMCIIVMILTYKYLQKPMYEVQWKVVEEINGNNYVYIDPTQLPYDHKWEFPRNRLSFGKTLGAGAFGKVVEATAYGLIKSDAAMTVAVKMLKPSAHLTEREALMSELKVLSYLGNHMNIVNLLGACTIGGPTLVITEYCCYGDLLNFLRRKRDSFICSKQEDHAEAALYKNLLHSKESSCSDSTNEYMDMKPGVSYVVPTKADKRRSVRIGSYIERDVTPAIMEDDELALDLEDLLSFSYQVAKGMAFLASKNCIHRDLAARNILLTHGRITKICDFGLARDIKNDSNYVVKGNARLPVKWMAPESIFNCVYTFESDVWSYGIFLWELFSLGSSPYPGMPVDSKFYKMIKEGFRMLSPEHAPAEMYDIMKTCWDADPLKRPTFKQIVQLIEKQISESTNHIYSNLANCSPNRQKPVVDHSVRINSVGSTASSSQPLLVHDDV

B1: NEG085: anti-cKIT antibody of Table 1; VH SEQ ID NO 82, VL SEQ ID NO 91; derived from 9P3 (antibody, V domains shown)
VH: EVQLVESGGGLVQPGGSLRLSCAASGFAFSGYYMAWVRQAPGKGLEWVANINYPGSSTYYLDSVKGRFTISRDNAKNSLYLQMNSLRAEDTAVYYCARGDYYGTTYWYFDVWGQGTTVTVSS
VL: DIQMTQSPSSLSASVGDRVTITCRASQSISSYLNWYQQKPGKAPKLLIYYTSRLQSGVPSRFSGSGSGTDFTLTISSLQPEDFATYYCQQGRRLWSFGGGTKVEIK
- time of the bulk of the internalization [1]: 15 min
- cKIT internalization ([1]; 0-240 min): rapidly internalized
- inhibition of cell proliferation [2]: do not have this effect
- ADCC (Uke-1 cells): not able to induce ADCC even at higher concentrations
- mast cell degranulation (primary human mast cells): do not induce mast cell degranulation of human primary mast cells ex vivo
